# Experimental data taken from PMC9700395.
# Biological target: Thrombin (UniProt P00734;P00734 328-363;364-622)
# Test: ion current rectification nanopipette aptasensor
binder,measurement,value
"N protein aptamer (ssDNA, 5'-NH2) DNA: GCTGGATGTCGCTTACGACAATATTCCTTAGGGGCACCGCTACATTGACACATCCAGC",binding result,no binding
